# Measurements taken from paper PMC3969726.
# Experiments:
# [1] = molecular target: Bfr ArdA (ArdA protein from Bacteroides fragilis NCTC 9343, Orf BF1222) (Bacteroides fragilis NCTC 9343); test: SEC; Biosep-SEC-S3000 column; 20 mM Tris-HCl, 20 mM MES, 200 mM NaCl, 10 mM MgCl2, 0.1 mM EDTA, 7 mM 2-mercaptoethanol, pH 6.5; 25 °C; apparent molecular mass against injected monomer concentration, fitted to a monomer-dimer equilibrium; apparent constants; dimer to monomers
# [2] = molecular target: Ocr (Escherichia phage T7) (UniProt P03775); settings: cited from earlier work
# [3] = molecular target: Mu50 ArdA (ArdA protein from Staphylococcus aureus Mu50, Orf SAV0405) (Staphylococcus aureus Mu50); test: SEC; Biosep-SEC-S3000 column; 20 mM Tris-HCl, 20 mM MES, 200 mM NaCl, 10 mM MgCl2, 0.1 mM EDTA, 7 mM 2-mercaptoethanol, pH 6.5; 25 °C; apparent molecular mass against injected monomer concentration, fitted to a monomer-dimer equilibrium; apparent constants; dimer to monomers
# [4] = molecular target: Orf18 ArdA protein expressed by the conjugative transposon Tn916 (conjugative transposon Tn916); test: as above
substance,measurement,setting,value
"Bfr ArdA (ArdA protein from Bacteroides fragilis NCTC 9343, Orf BF1222) (natural protein)",Kd,[1],360 nM
EcoKI MTase (from UniProt P08957),Kd,[2],0.05 nM
"Mu50 ArdA (ArdA protein from Staphylococcus aureus Mu50, Orf SAV0405) (natural protein)",Kd,[3],3180 nM
Orf18 ArdA protein expressed by the conjugative transposon Tn916 (natural protein),Kd,[4],2200 nM
